In patent publication US9850300B2, “Compositions and methods relating to inhibiting cancer cell growth and/or proliferation” (The Regents of the University of Michigan, priority 2013, dated 2017):
Entries after “also recorded” stand apart in the source; their conditions may differ.

Columns and labels:
[1] = tested on: SKOV3, OVCAR3, OVCAR8, and primary ovarian tumor cells; assay: EGFL6 treatment of ovarian cancer cells, total cell number; assay type: cell-based
Text: EGFL6 was next expressed in HEK293 cells, NIH3T3 cells, and SKOV3 ovarian cancer cells. Western blot analysis confirmed secretion of EGLF6 in both transient and stable transfectants (FIG. 2Ai, 2D) from all three cell lines. EGFL6 protein was purified to >95% purity (FIG. 2Aii) and treated ovarian cancer cells with either purified EGFL6, supernatant from EGFL6-expressing HEK293 cells, or supernatant from control transfected HEK293 cells. Purified fusion protein and supernatant from EGFL6 transfected cells had similar effects. EGFL6 treatment of SKOV3, OVCAR3, OVCAR8, and primary ovarian tumor cells was associated with a 30-40% increase in total cell number (FIG. 2B).
SKOV3, A2008, and A2780 were maintained in RPMI-1640, supplemented with 10% FBS with 1% Penicillin/Streptomycin, and cultured in humidified atmosphere of 5% CO2 at 37° C. For all in vitro cell culture experiments, isolated cells were allow to recover overnight following FACS, prior to treatment. Infantile Hemangioma Stem cells were maintained in EBM-2 medium with growth factor supplement cocktails in culture plates coated with fibronectin. For Echistatin and EGFL6 treatment, cells were pretreated with Echistatin (Sigma, 100 nM) for 24 hours prior to EGFL6 treatment. All transfections were performed using FuGene6 reagent (Promega) per company protocol. […]

[2] = tested on: SKOV3 cells; assay: Cell cycle analysis (propidium iodine, FACS); assay type: cell-based; settings: EGFL6 treatment 24 hrs after serum starvation
Experimental: SKOV3 cells were seeded at 5×10^5 in 6 cm culture plates, synchronized by serum starvation for 24 hrs, then treated with EGFL6 or control for 24 hrs. Cells were fixed with ice-cold alcohol, washed with PBS, and stained with propidium iodine ([…]) and RNase A (100 ug/ml) in PBS for 1 hr at 30° C. Cell cycle profile was acquired by FACS analysis and data were analyzed by Flowjo.

[3] = tested on: ALDH+ CSCs in SKOV3 cells; assay: ALDH+ cell percentage and number (ALDEFLUOR FACS); assay type: cell-based
Text: It has been shown that aldehyde dehydrogenase enzymatic activity (ALDH) is an excellent marker of ovarian CSCs in SKOV3 cells and primary patient samples (see, e.g., Silva, I. A., et al. Cancer Res (2011); Landen, C. N., Jr., et al. Mol Cancer Ther 9, 3186-3199 (2010); Steg, A. D., et al. Clin Cancer Res 18, 869-881 (2012); Kryczek, I., et al. Int J Cancer 130, 29-39 (2012); Deng, S., et al. PLoS ONE 5, e10277 (2010)). The impact of EGFL6 treatment on the percentage of ALDH^+ CSCs in vitro was next assessed. […] However, given the increase in total cell numbers, the absolute ALDH^+ CSC number remained unchanged (FIG. 3Aiii). […] Human ovarian cancer ascites cells were also treated with EGFL6 in a tumor sphere assay. Once again, treatment with EGLF6 was associated with a reduction in ALDH^+ cell percentages in tumor spheres (FIG. 3B).
SKOV3, A2008, and A2780 were maintained in RPMI-1640, supplemented with 10% FBS with 1% Penicillin/Streptomycin, and cultured in humidified atmosphere of 5% CO2 at 37° C. For all in vitro cell culture experiments, isolated cells were allow to recover overnight following FACS, prior to treatment. Infantile Hemangioma Stem cells were maintained in EBM-2 medium with growth factor supplement cocktails in culture plates coated with fibronectin. For Echistatin and EGFL6 treatment, cells were pretreated with Echistatin (Sigma, 100 nM) for 24 hours prior to EGFL6 treatment. All transfections were performed using FuGene6 reagent (Promega) per company protocol.
FACS assay was performed as previously described (see, e.g., Silva, I. A., et al. Cancer Res (2011)). Briefly, SKOV3 cells or primary ovarian tumor/ascetics cells were stained for ALDH using ALDEFLUOR kit per company protocol (Stem Cell Technologies). DAPI staining was used to exclude non-viable cells. For FACS cell sorting, equal number of ALDH and ALDH^(−) cells were collected for subsequent experiments.
EGFL6 monoclonal antibody producing hybridoma cells were maintained in RPMI medium supplemented with 10% FBS. For antibody purification, the cells were cultured in reduced FBS (5%). […]

[4] = tested on: primary ALDH+ and ALDH(−) cells; assay: Single cell microfluidic culture, cell division type; assay type: cell-based, human
Text: For primary cells, it was observed that over 50% of untreated ALDH^(−) cells underwent no division over 5 days, while remaining cells underwent symmetric division. […] 20% of ALDH^+ cells underwent no division. EGFL6 treatment of primary ALDH^+ cells was associated with a 1.9-fold increase in the number of ALDH^+ cells undergoing asymmetric division (FIG. 3Dii). EGFL6 treatment was associated with an increase in total cell numbers (90 EGFL6 treated cells yielded 585 total cells while 82 mock-treated cells yielded 451 cells).
Informed consent was obtained from all patients before tissue procurement. All studies were performed with the approval of the Institutional Review Board of the University of Michigan. All tumors were stage III or IV epithelial ovarian or primary peritoneal cancer. Tumors were mechanically dissected into single-cell suspensions and isolated on a ficoll gradient as previously described (see, e.g., Pulaski, H. L., et al. J Transl Med 7, 49 (2009)). For ascites, cell pellets were collected by centrifugation; red cells were lysed using ACK buffer (Lonza, Hopkinton, Mass.), washed, passed through a 40-μm filter, then passed 4 times through a Standard Hub Pipetting needle to isolate single cells (see, e.g., Silva, I. A., et al. Cancer Res (2011)).

[5] = increasing concentrations of EGFL6

B1: EGFL6: recombinant EGFL6-flag protein from transfected HEK293 cells, used purified or as 72 hr supernatant (protein)
chain: NAASARHHGLLASARQPGVCHYGTKLACCYGWRRNSKGVCEATCEPGCKFGECVGPNKCRCFPGYTGKTCSQDVNECGMKPRPCQHRCVNTHGSYKCFCLSGHMLMPDATCVNSRTCAMINCQYSCEDTEEGPQCLCPSSGLRLAPNGRDCLDIDECASGKVICPYNRRCVNTFGSYYCKCHIGFELQYISGRYDCIDINECTMDSHTCSHHANCFNTQGSFKCKCKQGYKGNGLRCSAIPENSVKEVLRAPGTIKDRIKKLLAHKNSMKKKAKIKNVTPEPTRTPTPKVNLQPFNYEEIVSRGGNSHGGKKGNEEKMKEGLEDEKREEKALKNDIEERSLRGDVFFPKVNEAGEFGLILVQRKALTSKLEHKDLNISVDCSFNHGICDWKQDREDDFDWNPADRDNAIGFYMAVPALAGHKKDIGRLKLLLPDLQPQSNFCLLFDYRLAGDKVGKLRVFVKNSNNALAWEKTTSEDEKWKTGKIQLYQGTDATKSIIFEAERGKGKTGEIAVDGVLLVSGLCPDSLLSVDD
increase in total cell number ([1]; EGFL6 treatment vs control supernatant): 30-40%
total cell numbers [1, 5]: increasing total cell numbers
decrease in the number of cells in G1 phase [2]: ~20%
number of cells in S and G2/M phases [2]: concomitant increase
percentages of ALDH+ CSCs ([3]; EGFL6 treatment): decreasing percentages; also recorded: reduced
absolute ALDH+ CSC number [3, 5]: unchanged
total cells yielded ([4]; from 90 EGFL6 treated primary cells): 585 total cells
symmetric divisions of ALDH(−) cells ([4]; primary ALDH(−) cells, 5 days): non-statistically significant increase
increase in the number of ALDH+ cells undergoing asymmetric division ([4]; primary ALDH+ cells): 1.9 fold
